Test results reported in US7727960B2, “C5a receptor antagonists” (Jerini AG, priority 2003, dated 2010).

Target: T1, human C5aR (CD88) (human, UniProt P21730 1-350)
T1 sequence (looked up): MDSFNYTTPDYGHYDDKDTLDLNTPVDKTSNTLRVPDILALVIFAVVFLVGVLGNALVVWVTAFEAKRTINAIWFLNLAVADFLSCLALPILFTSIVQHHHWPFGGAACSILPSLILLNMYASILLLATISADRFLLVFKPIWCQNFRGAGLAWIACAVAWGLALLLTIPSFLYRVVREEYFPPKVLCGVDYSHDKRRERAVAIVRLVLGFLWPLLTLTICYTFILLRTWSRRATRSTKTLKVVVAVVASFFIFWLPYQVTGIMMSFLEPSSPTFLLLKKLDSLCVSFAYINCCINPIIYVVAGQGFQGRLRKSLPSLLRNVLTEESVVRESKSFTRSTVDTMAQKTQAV
Test: cell-based or functional assay

| IC50 activity group, enzyme release assay [µM] | EC50, agonistic activity, enzyme release assay [µM] | Substance |
| --- | --- | --- |
| < 0.2 |  | Ac-Phe-Cit-Hyp-hle-Bta-Phe-NH2 (peptide) |
| < 0.05 |  | Ac-Phe-Orn-Pro-cha-Bta-Dff-NH2 (peptide) |
| < 0.2 |  | Ac-Phe-[Orn-Pro-hle-Bta-Phe] (peptide) |
| < 0.2 |  | H-Phe-[Orn-Ser-hle-Pff-Leu] (peptide) |
| < 0.2 |  | Ac-Phe-[Orn-HyA-cha-Trp-Phe] (peptide) |
| < 0.2 |  | Ac-Phe-Orn-Aze-cha-Pff-Phe-NH2 (peptide) |
| < 0.05 |  | CH3CH2CO-Phe-Orn-Pro-cha-Bta-Phe-NH2 (peptide) |
| < 0.05 |  | Ac-Phe-Dab-Aze-cha-Bta-Phe-NH2 (peptide) |
| < 0.05 |  | Ac-Thi-Orn-Pro-cha-Bta-Thi-NH2 (peptide) |
| < 0.2 |  | Ac-Phe-[Orn-Hyp(COCH2OCH2CH2OCH2CH2OCH3)-cha-Trp-Nle] (peptide) |
| < 0.05 |  | Ac-Phe-Orn-Pro-hle-Mcf-Cha-NH2 (peptide) |
| < 0.2 |  | Ac-Phe-Orn-Pro-hle-Mcf-2Ni-NH2 (peptide) |
| < 0.2 |  | Ac-Phe-Orn-Pro-omf-Bta-Phe-NH2 (peptide) |
| < 0.05 |  | Ac-Phe-Guf-Pro-cha-Bta-Phe-NH2 (peptide) |
| < 0.05 |  | H-Phe-[Orn-Hyp-hle-Trp-Nle] (peptide) |
| < 0.2 |  | Ac-Phe-Orn-Pro-hle-Bta-Egy-NH2 (peptide) |
| < 2 |  | Ac-Phe-Orn-Pip-cha-Trp-Phe-OH (peptide) |
| < 0.05 |  | FAc-Phe-Orn-Aze-cha-Bta-Phe-NH2 (peptide) |
| < 0.2 |  | Ac-Phe-Orn-Pro-hle-Egc-Phe-NH2 (peptide) |
| < 0.05 |  | Ac-Cit-Phe-Orn-Aze-cha-Bta-Phe-NH2 (peptide) |
| < 0.05 |  | 3PP-[Orn-Hyp-cha-Trp-Nle] (peptide) |
| < 0.05 | > 100 | Ac-Phe-Orn-Pro-cha-Bta-Phe-NH2 (peptide) |
| < 0.2 |  | Ac-Phe-Orn-Pro-hle-Bta-5Ff-NH2 (peptide) |
| < 0.2 |  | Ac-Pff-Orn-Pro-hle-Bta-Phe-NH2 (peptide) |

| IC50 activity group, enzyme release assay [µM] | EC50, agonistic activity, enzyme release assay [µM] | Substance |
| --- | --- | --- |
| < 0.05 |  | Ac-Phe-Orn(Ac)-Aze-cha-Bta-Phe-NH2 (peptide) |
| < 0.02 |  | Ac-Phe-[Orn-Hyp-cha-Trp-Nle] (peptide) |
| < 0.2 |  | Ac-Phe-Orn-Pro-hle-Bta-Cha-NH2 (peptide) |
| < 0.2 |  | H-Phe-[Orn-Pro-cha-Pff-Phe] (peptide) |
| < 0.2 |  | Ac-Phe-Orn-Pro-hle-Otf-Phe-NH2 (peptide) |
| < 0.05 | > 100 | Ac-Phe-Orn-Pip-cha-Trp-Phe-NH2 (peptide) |
| < 0.05 |  | Ac-Phe-Ffa-Aze-cha-Bta-Phe-NH2 (peptide) |
| < 0.05 |  | Ac-Arg-Phe-Orn-Aze-cha-Bta-Phe-NH2 (peptide) |
| < 0.2 |  | H-Phe-[Orn-Hyp-hle-Trp-Hle] (peptide) |
| < 0.2 |  | Ac-Phe-Orn-Pro-cha-1Ni-Phe-NH2 (peptide) |
| < 0.05 |  | Ac-Hyp-Phe-Orn-Aze-cha-Bta-Phe-NH2 (peptide) |
| < 0.02 |  | Ac-Phe-Dab-Pro-cha-Bta-Phe-NH2 (peptide) |
| < 0.2 |  | Ac-Orn-Phe-Orn-Aze-cha-Bta-Phe-NH2 (peptide) |
| < 0.2 |  | Ac-Phe-Orn-Pro-hle-Ocf-Phe-NH2 (peptide) |
| < 0.05 |  | Ac-Off-Orn-Pro-hle-Bta-Phe-NH2 (peptide) |
| < 0.2 |  | Ac-Phe-Orn-Pro-hle-Pff-Phe-NH2 (peptide) |
| < 0.05 |  | FH2C-CO-Phe-Orn-Pro-cha-Bta-Phe-NH2 (peptide) |
| < 0.05 |  | H-Phe-[Orn-Hyp-cha-Trp-Nle] (peptide) |
| < 0.2 |  | H-Phe-[Orn-Ser-hle-Mcf-Leu] (peptide) |
| < 0.2 |  | Ac-Phe-OrA-Pro-cha-Bta-Phe-NH2 (peptide) |
| < 0.2 |  | Ac-Phe-[Orn-Chy-cha-Trp-Nle] (peptide) |
| < 0.2 |  | H-Phe-[Orn-NMS-hle-Pff-Phe] (peptide) |
| < 0.05 |  | H-Phe-[Orn-Ser-hle-Pff-Nle] (peptide) |
| < 0.02 |  | Ac-Phe-Fcn-Aze-cha-Bta-Phe-NH2 (peptide) |

| IC50 activity group, enzyme release assay [µM] | EC50, agonistic activity, enzyme release assay [µM] | Substance |
| --- | --- | --- |
| < 0.2 |  | Ac-Phe-[Orn-Hyp(CONH-CH2CH(OH)-CH2OH)-cha-Trp-Nle] (peptide) |
| < 0.2 |  | Ac-Pff-Orn-Pro-hle-Mcf-Pff-NH2 (peptide) |
| < 0.2 |  | Ac-Phe-Orn-Hse-cha-Bta-Phe-NH2 (peptide) |
| < 0.05 |  | Ac-Eby-Orn-Pro-cha-Bta-Phe-NH2 (peptide) |
| < 0.2 |  | Ac-Phe-[Orn-NMD-cha-Trp-Nle] (peptide) |
| < 0.2 |  | Ac-Phe-Orn-Chy-hle-Pff-Phe-NH2 (peptide) |
| < 0.2 |  | Ac-Phe-Nle-Pro-cha-Bta-Phe-NH2 (peptide) |
| < 0.2 |  | Ac-Phe-[Orn-Hyp-Mmf-Trp-Phe] (peptide) |
| < 0.05 |  | Ac-Phe-Cit-Pro-hle-Bta-Phe-NH2 (peptide) |
| < 0.2 |  | Ac-Phe-[Orn-Pro-hle-Pff-Phe] (peptide) |
| < 0.2 |  | Ac-Phe-Orn-Pro-hle-Mcf-Phe-NH2 (peptide) |
| < 0.05 |  | Ac-Phe-Orn-Pro-cha-Bta-Bhf-NH2 (peptide) |
| < 0.2 |  | Ac-Phe-Orn-Pro-hle-Bta-Pff-NH2 (peptide) |
| < 0.02 |  | Ac-Phe-Har-Aze-cha-Bta-Phe-NH2 (peptide) |
| < 0.2 |  | Ac-Thi-[Orn-Pro-hle-Bta-Phe] (peptide) |
| < 0.05 | > 100 | Ac-Phe-Orn-Aze-cha-Trp-Phe-NH2 (peptide) |
| < 0.2 |  | Ac-Phe-Orn-Pro-cha-Bta-Opa-NH2 (peptide) |
| < 0.05 |  | Ac-Thi-Orn-Pro-cha-Bta-Phe-NH2 (peptide) |
| < 0.2 |  | Ac-Phe-Orn-Pro-hle-Pff-Eaa-NH2 (peptide) |
| < 0.2 |  | Ac-Phg-Orn-Pro-cha-Bta-Phe-NH2 (peptide) |
| < 0.2 |  | Ac-Phe-Orn-Pro-hle-Bta-1Ni-NH2 (peptide) |
| < 2 |  | (-CO-CH2-CH2-CO-)-Phe-Orn-Pro-cha-Bta-Phe-NH2 (peptide) |
| < 0.2 |  | Ac-Phe-[Orn-Asn-cha-Trp-Nle] (peptide) |
